Measured values as given in the supplement of paper PMC6757056.
± gives the standard deviation of the averaged measurements.

B1: library; a variant is named by its letters at N, in order (parent)
chain: GCUGUCACCGAGAAACUGUGAAGUAUAUCUUAAACCUGGGCACUUAAAAGAUAUAUGGAGUUAGUAGUGCAACCUGCUCGGUCUGAUGAGUCCNNNNNNGGACGAAACAGC

Experiments:
[1] = variants of: B1; assay: normalized RNA/DNA level without ligand (relative to sTRSVctl = 100) (log10 (% of sTRSVctl)); HEK293T; ligand: cyclic di-GMP (c-di-GMP-II aptamer); higher = less ribozyme self-cleavage, higher mRNA level; details: reporter: mCherry (pCS4076), ligand present: no
Method in brief: (§1)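 HEK293T cells were transfected with library plasmids carrying ribozyme switches linked to an mCherry reporter, or an eGFP reporter in some ligand experiments, at 4 µg per well of a 6-well plate, with any ligand added 1 h beforehand. After 72 h, total RNA was extracted with EDTA, reverse-transcribed, amplified, barcoded and sequenced. RNA level was defined as RNA reads over DNA reads, normalized to a spiked-in non-cleaving sequence or to the top-ranked sequences. That value was multiplied by 100 and converted to log10, the top set was 25 sequences, and only sequences with ≥100 DNA reads were retained.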

[2] = variants of: B1; assay: normalized RNA/DNA level with ligand (relative to sTRSVctl = 100) (log10 (% of sTRSVctl)); HEK293T; ligand: cyclic di-GMP (c-di-GMP-II aptamer); ligand concentration (+) RNA-Seq: 1 mM; higher = less ribozyme self-cleavage, higher mRNA level; details: reporter: mCherry (pCS4076), ligand present: yes
Method in brief: as §1

Row | Variant | normalized RNA/DNA level without ligand (log10) [1] | normalized RNA/DNA level with ligand (log10) [2]
1 | GUCAGA | 1.56 ± 0.057 | 1.76 ± 0.076
2 | GUCAGU | 1.63 ± 0.022 | 1.77 ± 0.15
3 | GUCAGC | 1.67 ± 0.017 | 1.83 ± 0.17
4 | AUCUUU | 1.69 ± 0.046 | 1.86 ± 0.1
5 | AUCUUA | 1.61 ± 0.037 | 1.76 ± 0.12
6 | AUCUUC | 1.81 ± 0.038 | 1.92 ± 0.086
7 | AUCUUG | 1.657 ± 0.0055 | 1.81 ± 0.093
8 | CUCCAG | 1.73 ± 0.07 | 1.86 ± 0.055
9 | CUCCAC | 1.719 ± 0.016 | 1.84 ± 0.092
10 | CUCCAU | 1.58 ± 0.035 | 1.82 ± 0.057
11 | CUCCAA | 1.46 ± 0.096 | 1.72 ± 0.083
12 | GUCACA | 1.663 ± 0.0013 | 1.77 ± 0.17
13 | GUCACC | 1.708 ± 0.011 | 1.85 ± 0.055
14 | GUCGUA | 1.63 ± 0.073 | 1.78 ± 0.095
15 | GUCGUU | 1.61 ± 0.017 | 1.8 ± 0.14
16 | GUCGUC | 1.67 ± 0.036 | 1.78 ± 0.11
17 | GUCGUG | 1.62 ± 0.041 | 1.79 ± 0.1
18 | UUCCCU | 1.766 ± 0.012 | 1.89 ± 0.048
19 | UUCCCC | 1.84 ± 0.053 | 1.94 ± 0.14
20 | UUCCCA | 1.79 ± 0.07 | 1.92 ± 0.12
21 | UUCCCG | 1.85 ± 0.1 | 1.94 ± 0.13
22 | CUCUCA | 1.57 ± 0.056 | 1.78 ± 0.098
23 | CUCUCC | 1.81 ± 0.029 | 1.91 ± 0.11

Row | Variant | normalized RNA/DNA level without ligand (log10) [1] | normalized RNA/DNA level with ligand (log10) [2]
24 | CUCUCG | 1.89 ± 0.031 | 1.96 ± 0.1
25 | UUCUUU | 1.74 ± 0.024 | 1.9 ± 0.081
26 | UUCUUA | 1.76 ± 0.095 | 1.87 ± 0.15
27 | UUCUUG | 1.73 ± 0.045 | 1.86 ± 0.11
28 | UUCUUC | 1.78 ± 0.05 | 1.89 ± 0.16
29 | AUCGGU | 1.647 ± 0.0035 | 1.78 ± 0.066
30 | AUCGGG | 1.67 ± 0.069 | 1.81 ± 0.12
31 | AUCGGC | 1.78 ± 0.033 | 1.87 ± 0.16
32 | UUCUGC | 1.784 ± 0.003 | 1.92 ± 0.08
33 | UUCUGA | 1.73 ± 0.023 | 1.83 ± 0.046
34 | UUCUGG | 1.79 ± 0.04 | 1.89 ± 0.085
35 | UUCUGU | 1.7281 ± 0.00073 | 1.86 ± 0.1
36 | CUCAUG | 1.68 ± 0.031 | 1.82 ± 0.14
37 | CUCAUU | 1.79 ± 0.079 | 1.9 ± 0.12
38 | AUCUAG | 1.62 ± 0.032 | 1.8 ± 0.092
39 | AUCUAA | 1.52 ± 0.019 | 1.7 ± 0.091
40 | AUCUAU | 1.71 ± 0.073 | 1.79 ± 0.067
41 | AUCAUG | 1.62 ± 0.019 | 1.78 ± 0.11
42 | AUCAUA | 1.615 ± 0.0089 | 1.74 ± 0.075
43 | AUCAUU | 1.695 ± 0.0081 | 1.79 ± 0.12
44 | AUCAUC | 1.8459 ± 0.00049 | 1.935 ± 0.0035
45 | AUCGUC | 1.85 ± 0.056 | 1.92 ± 0.092
46 | AUCGUG | 1.59 ± 0.084 | 1.74 ± 0.027

Row | Variant | normalized RNA/DNA level without ligand (log10) [1] | normalized RNA/DNA level with ligand (log10) [2]
47 | AUCGUA | 1.511 ± 0.0037 | 1.72 ± 0.16
48 | AUCGUU | 1.6 ± 0.035 | 1.78 ± 0.048
49 | CUCUUC | 1.73 ± 0.052 | 1.87 ± 0.082
50 | CUCUUU | 1.6 ± 0.071 | 1.76 ± 0.079
51 | AUCGAU | 1.56 ± 0.076 | 1.77 ± 0.063
52 | AUCGAG | 1.56 ± 0.058 | 1.78 ± 0.1
53 | AUCGAA | 1.45 ± 0.084 | 1.67 ± 0.09
54 | AUCGAC | 1.631 ± 0.012 | 1.8 ± 0.075
55 | UUCCUC | 1.779 ± 0.013 | 1.91 ± 0.1
56 | UUCCUA | 1.68 ± 0.018 | 1.83 ± 0.11
57 | UUCCUU | 1.73 ± 0.018 | 1.9 ± 0.099
58 | UUCCUG | 1.776 ± 0.017 | 1.91 ± 0.11
59 | AUCACU | 1.74 ± 0.057 | 1.88 ± 0.12
60 | AUCACG | 1.64 ± 0.012 | 1.78 ± 0.13
61 | AUCACA | 1.64 ± 0.069 | 1.8 ± 0.062
62 | AUCACC | 1.77 ± 0.035 | 1.87 ± 0.068
63 | GUCGCA | 1.77 ± 0.021 | 1.86 ± 0.09
64 | GUCGCC | 1.77 ± 0.036 | 1.89 ± 0.12
65 | CUCUGU | 1.78 ± 0.062 | 1.91 ± 0.06
66 | CUCUGC | 1.7905 ± 0.00063 | 1.83 ± 0.13
67 | CUCUGA | 1.663 ± 0.015 | 1.81 ± 0.09
68 | CUCUGG | 1.81 ± 0.066 | 1.86 ± 0.14
69 | AUCUCC | 1.806 ± 0.0081 | 1.9 ± 0.034

Row | Variant | normalized RNA/DNA level without ligand (log10) [1] | normalized RNA/DNA level with ligand (log10) [2]
70 | AUCUCG | 1.76 ± 0.023 | 1.87 ± 0.15
71 | AUCUCU | 1.669 ± 0.0069 | 1.86 ± 0.042
72 | AUCUCA | 1.666 ± 0.0097 | 1.78 ± 0.16
73 | AUGAGC | 1.62 ± 0.066 | 1.8 ± 0.082
74 | AUGAGG | 1.55 ± 0.044 | 1.73 ± 0.085
75 | UUCGGG | 1.774 ± 0.011 | 1.9 ± 0.13
76 | UUCGGU | 1.75 ± 0.029 | 1.87 ± 0.056
77 | UUCACG | 1.803 ± 0.018 | 1.9 ± 0.09
78 | UUCACA | 1.81 ± 0.029 | 1.89 ± 0.16
79 | UUCACC | 1.778 ± 0.0039 | 1.89 ± 0.078
80 | UUCAGA | 1.7 ± 0.084 | 1.81 ± 0.069
81 | UUCAGU | 1.75 ± 0.023 | 1.89 ± 0.069
82 | UUCAGC | 1.78 ± 0.082 | 1.9 ± 0.13
83 | UUCAGG | 1.82 ± 0.048 | 1.88 ± 0.12
84 | UUCGCC | 1.7 ± 0.051 | 1.83 ± 0.067
85 | UUCGCU | 1.77 ± 0.023 | 1.88 ± 0.087
86 | UUCGCG | 1.837 ± 0.0073 | 1.93 ± 0.089
87 | UUCGCA | 1.787 ± 0.014 | 1.9 ± 0.049
88 | CUGACG | 1.8 ± 0.028 | 1.9 ± 0.17
89 | CUGACA | 1.51 ± 0.086 | 1.7 ± 0.075
90 | CUGACU | 1.52 ± 0.05 | 1.75 ± 0.11
91 | AUGACA | 1.581 ± 0.013 | 1.72 ± 0.14
92 | AUGACG | 1.59 ± 0.089 | 1.76 ± 0.086

Row | Variant | normalized RNA/DNA level without ligand (log10) [1] | normalized RNA/DNA level with ligand (log10) [2]
93 | GUCAUA | 1.57 ± 0.025 | 1.76 ± 0.14
94 | GUCAUG | 1.61 ± 0.037 | 1.75 ± 0.11
95 | GUCAUU | 1.66 ± 0.061 | 1.81 ± 0.12
96 | CUGAGC | 1.76 ± 0.033 | 1.87 ± 0.12
97 | CUGAGG | 1.73 ± 0.031 | 1.88 ± 0.16
98 | CUGAGA | 1.46 ± 0.079 | 1.69 ± 0.11
99 | CUCGUG | 1.63 ± 0.047 | 1.82 ± 0.088
100 | CUCGUC | 1.81 ± 0.032 | 1.93 ± 0.098
101 | CUCGUU | 1.762 ± 0.005 | 1.86 ± 0.1
102 | CUCGUA | 1.6 ± 0.025 | 1.76 ± 0.086
103 | UUCAUA | 1.69 ± 0.019 | 1.82 ± 0.12
104 | UUCAUU | 1.77 ± 0.074 | 1.89 ± 0.094
105 | UUCAUG | 1.698 ± 0.013 | 1.83 ± 0.087
106 | AUCUGA | 1.56 ± 0.099 | 1.71 ± 0.079
107 | AUCUGU | 1.731 ± 0.012 | 1.88 ± 0.15
108 | CUCAGC | 1.76 ± 0.076 | 1.89 ± 0.13
109 | CUCAGU | 1.75 ± 0.018 | 1.83 ± 0.07
110 | CUCAGG | 1.8 ± 0.037 | 1.87 ± 0.14
111 | CUCCGG | 1.79 ± 0.072 | 1.87 ± 0.17
112 | CUCCGA | 1.69 ± 0.016 | 1.82 ± 0.15
113 | CUCCGC | 1.78 ± 0.019 | 1.91 ± 0.073
114 | CUCGAG | 1.71 ± 0.034 | 1.86 ± 0.11
115 | CUCGAU | 1.72 ± 0.023 | 1.86 ± 0.081
